± gives the standard deviation of the averaged measurements.
System: ATP
Test: switch fluorescence ratio, 500 uM ATP over buffer (Cy3 cluster intensity, sum of 5 cycles each) (fold (ratio)); higher = stronger signal-on switching upon ATP binding; sequences stand for … in TCGTCGGCAGCGTCAGATGTGTATAAGAGACAGTTTTTTTTTTTTTTTTTTTTTTTTT…TC
Conditions: aptamer strand: ATP DNA aptamer (quencher-CACCTGGGGGAGTATTGCGGAGGAAGG + anchor), 100 nM annealed; ATP concentration: 500 uM
In short: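 Between each of five buffer/ATP cycles, the flow-cell was stripped with NaOH and re-annealed. Each cycle imaged Cy3-labelled switching-strand clusters, annealed to 100 nM quencher-labelled ATP aptamer on a modified Illumina MiSeq flow-cell, first in selection buffer and then after 15 min with 500 uM ATP at 22 °C. The fluorescence ratio is summed target-cycle over summed buffer-cycle Cy3 intensity per cluster, averaged per switch-domain sequence, with clusters outside 100-1000 RFU excluded.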
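Note: ATP exposure 15 min at 22 °C before imaging.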

TTTGTTTTGG gave a switch fluorescence ratio of 1.03 ± 0.025.

Work on TTTTAAAAGG yielded a switch fluorescence ratio of 0.99 ± 0.037.

Sequence TTTTAAACCG has a switch fluorescence ratio of 1.05 ± 0.17.

TTTTAAACTT showed a switch fluorescence ratio of 1.09 ± 0.15.

Sequence TTTTAACCTG has a switch fluorescence ratio of 1.01 ± 0.046.

With TTTTAACGGG the switch fluorescence ratio was 0.998 ± 0.027.

With TTTTAACTTC the switch fluorescence ratio was 1 ± 0.014.

TTTTAAGAGA gave a switch fluorescence ratio of 1.01 ± 0.017.

In the case of TTTTAAGCTA, the switch fluorescence ratio is reported as 1.12 ± 0.2.

In the case of TTTTAAGGG, the switch fluorescence ratio is reported as 1.02 ± 0.022.

In the case of TTTTAAGTGA, the switch fluorescence ratio is reported as 1.02 ± 0.05.

For TTTTAATACC, the switch fluorescence ratio was 1 ± 0.023.

Sequence TTTTAATAGT has a switch fluorescence ratio of 1.01 ± 0.018.

For TTTTAATCCC, the switch fluorescence ratio was 1.07 ± 0.062.

In the case of TTTTAATCGA, the switch fluorescence ratio is reported as 1.02 ± 0.043.

TTTTAATGAG was tested, and the switch fluorescence ratio was 0.9774 ± 0.00031.

Sequence TTTTAATGTT has a switch fluorescence ratio of 1 ± 0.046.

For TTTTAATTAG, the switch fluorescence ratio was 1.01 ± 0.018.

With TTTTAATTCC the switch fluorescence ratio was 1.02 ± 0.038.

TTTTAATTGG showed a switch fluorescence ratio of 1.01 ± 0.066.

In the case of TTTTAATTTG, the switch fluorescence ratio is reported as 0.994 ± 0.04.

For TTTTACAAGA, the switch fluorescence ratio was 0.996 ± 0.043.

With TTTTACACAT the switch fluorescence ratio was 1.025 ± 0.0057.

Work on TTTTACAGCA yielded a switch fluorescence ratio of 1.04 ± 0.03.

In the case of TTTTACAGTA, the switch fluorescence ratio is reported as 1.07 ± 0.022.

Work on TTTTACATTT yielded a switch fluorescence ratio of 1 ± 0.057.

TTTTACCCAG gave a switch fluorescence ratio of 1.11 ± 0.012.

In the case of TTTTACCCGC, the switch fluorescence ratio is reported as 1.11 ± 0.078.

TTTTACCCGG showed a switch fluorescence ratio of 1.04 ± 0.029.

TTTTACGACA showed a switch fluorescence ratio of 1.15 ± 0.014.

With TTTTACGCCG the switch fluorescence ratio was 1.09 ± 0.041.

For TTTTACGCTT, the switch fluorescence ratio was 1.04 ± 0.017.

For TTTTACGGTT, the switch fluorescence ratio was 1.03 ± 0.069.

For TTTTACGTAG, the switch fluorescence ratio was 1.09 ± 0.035.

For TTTTACTATT, the switch fluorescence ratio was 0.996 ± 0.041.

With TTTTAGAAA the switch fluorescence ratio was 1.02 ± 0.07.

TTTTAGAGGT was tested, and the switch fluorescence ratio was 0.96 ± 0.033.

Sequence TTTTAGCCAG has a switch fluorescence ratio of 1.01 ± 0.032.

With TTTTAGGAGA the switch fluorescence ratio was 1.02 ± 0.026.

For TTTTAGGCCT, the switch fluorescence ratio was 1.045 ± 0.0027.

For TTTTAGGCTC, the switch fluorescence ratio was 1.03 ± 0.039.

Work on TTTTAGGGCG yielded a switch fluorescence ratio of 0.976 ± 0.048.

TTTTAGGTAC showed a switch fluorescence ratio of 1.021 ± 0.0019.

TTTTAGGTTC was tested, and the switch fluorescence ratio was 1.01 ± 0.018.

Work on TTTTAGTACA yielded a switch fluorescence ratio of 1 ± 0.048.

In the case of TTTTAGTATA, the switch fluorescence ratio is reported as 1.02 ± 0.045.

TTTTAGTATG was tested, and the switch fluorescence ratio was 1 ± 0.02.

Work on TTTTAGTGCT yielded a switch fluorescence ratio of 1.006 ± 0.0065.

In the case of TTTTAGTTGT, the switch fluorescence ratio is reported as 0.994 ± 0.032.

TTTTATACCA was tested, and the switch fluorescence ratio was 1.04 ± 0.039.

TTTTATACGG gave a switch fluorescence ratio of 0.9874 ± 0.0087.

TTTTATAGAC showed a switch fluorescence ratio of 1.04 ± 0.026.

For TTTTATCATG, the switch fluorescence ratio was 0.9758 ± 0.0028.

With TTTTATGTTG the switch fluorescence ratio was 1.01 ± 0.04.

For TTTTATTATT, the switch fluorescence ratio was 0.967 ± 0.01.

TTTTATTCGT was tested, and the switch fluorescence ratio was 1.01 ± 0.025.

Work on TTTTATTGCG yielded a switch fluorescence ratio of 0.995 ± 0.011.

TTTTCAAATA showed a switch fluorescence ratio of 1.01 ± 0.061.

TTTTCAAATT showed a switch fluorescence ratio of 1.01 ± 0.028.

For TTTTCAATGA, the switch fluorescence ratio was 0.994 ± 0.041.

Work on TTTTCAGCAA yielded a switch fluorescence ratio of 2.59 ± 1.

Work on TTTTCAGGAG yielded a switch fluorescence ratio of 1.03 ± 0.016.

TTTTCATGAG gave a switch fluorescence ratio of 1.01 ± 0.012.

In the case of TTTTCATTAT, the switch fluorescence ratio is reported as 1.046 ± 0.0066.

TTTTCATTCA gave a switch fluorescence ratio of 1.023 ± 0.0072.

For TTTTCATTTT, the switch fluorescence ratio was 1.05 ± 0.11.

For TTTTCCACGA, the switch fluorescence ratio was 1.3 ± 0.35.

For TTTTCCAGTT, the switch fluorescence ratio was 0.998 ± 0.029.

With TTTTCCGCCC the switch fluorescence ratio was 3.08 ± 2.9.

Work on TTTTCCGCTT yielded a switch fluorescence ratio of 1.55 ± 0.69.

With TTTTCGAAAA the switch fluorescence ratio was 1.03 ± 0.075.

For TTTTCGATCT, the switch fluorescence ratio was 1 ± 0.013.

Sequence TTTTCGCCGA has a switch fluorescence ratio of 1.03 ± 0.057.

In the case of TTTTCGGCCC, the switch fluorescence ratio is reported as 1.01 ± 0.026.

TTTTCGTGCA was tested, and the switch fluorescence ratio was 1.03 ± 0.046.

TTTTCTACAG was tested, and the switch fluorescence ratio was 1 ± 0.022.

TTTTCTCACG gave a switch fluorescence ratio of 1.12 ± 0.11.

TTTTCTGTCC was tested, and the switch fluorescence ratio was 1.03 ± 0.012.

With TTTTCTGTCG the switch fluorescence ratio was 1.06 ± 0.063.

For TTTTCTGTTT, the switch fluorescence ratio was 0.996 ± 0.047.

For TTTTCTTAGA, the switch fluorescence ratio was 0.977 ± 0.029.

With TTTTCTTAGT the switch fluorescence ratio was 0.974 ± 0.021.

With TTTTCTTATG the switch fluorescence ratio was 0.96 ± 0.013.

Work on TTTTCTTGGG yielded a switch fluorescence ratio of 1.03 ± 0.071.

In the case of TTTTCTTTT, the switch fluorescence ratio is reported as 1.02 ± 0.024.

TTTTCTTTTC gave a switch fluorescence ratio of 1.09 ± 0.084.

TTTTCTTTTG gave a switch fluorescence ratio of 1 ± 0.024.

Work on TTTTGAAAAG yielded a switch fluorescence ratio of 1.01 ± 0.019.

Sequence TTTTGAAATG has a switch fluorescence ratio of 0.965 ± 0.017.

TTTTGAACCA showed a switch fluorescence ratio of 1.05 ± 0.057.

In the case of TTTTGAAGGG, the switch fluorescence ratio is reported as 1 ± 0.021.

With TTTTGACCGT the switch fluorescence ratio was 0.973 ± 0.037.

With TTTTGACGTG the switch fluorescence ratio was 0.991 ± 0.013.

In the case of TTTTGACTTA, the switch fluorescence ratio is reported as 1.04 ± 0.034.

TTTTGAGATG showed a switch fluorescence ratio of 0.999 ± 0.024.

TTTTGAGCAT gave a switch fluorescence ratio of 1.07 ± 0.12.

Sequence TTTTGAGCTG has a switch fluorescence ratio of 1.02 ± 0.029.

For TTTTGAGGTC, the switch fluorescence ratio was 0.986 ± 0.064.

For TTTTGATACT, the switch fluorescence ratio was 1.0096 ± 0.00024.

TTTTGATGG showed a switch fluorescence ratio of 0.995 ± 0.036.

Work on TTTTGATTAA yielded a switch fluorescence ratio of 1.02 ± 0.041.

Sequence TTTTGATTAG has a switch fluorescence ratio of 1.006 ± 0.0015.

TTTTGATTGT was tested, and the switch fluorescence ratio was 1.01 ± 0.055.

In the case of TTTTGCAATT, the switch fluorescence ratio is reported as 1.98 ± 1.3.

TTTTGCACGG was tested, and the switch fluorescence ratio was 1.04 ± 0.0077.

For TTTTGCGAAA, the switch fluorescence ratio was 1.55 ± 0.9.

TTTTGCGGGG showed a switch fluorescence ratio of 1.08 ± 0.15.

For TTTTGGAATT, the switch fluorescence ratio was 1.04 ± 0.16.

With TTTTGGACCT the switch fluorescence ratio was 1.3 ± 0.0093.

Sequence TTTTGGAGTA has a switch fluorescence ratio of 1.02 ± 0.047.

Work on TTTTGGATCT yielded a switch fluorescence ratio of 0.982 ± 0.023.

TTTTGGATGT was tested, and the switch fluorescence ratio was 0.984 ± 0.048.

TTTTGGCGGG gave a switch fluorescence ratio of 0.983 ± 0.022.

Sequence TTTTGGCGGT has a switch fluorescence ratio of 0.971 ± 0.055.

TTTTGGGGAC showed a switch fluorescence ratio of 0.988 ± 0.043.

Work on TTTTGGGGGA yielded a switch fluorescence ratio of 0.999 ± 0.04.

For TTTTGGGGTC, the switch fluorescence ratio was 1.02 ± 0.023.

With TTTTGGGTAC the switch fluorescence ratio was 0.995 ± 0.04.

Work on TTTTGGGTGC yielded a switch fluorescence ratio of 1.08 ± 0.089.

TTTTGGTAAA showed a switch fluorescence ratio of 1 ± 0.038.

TTTTGGTAGG showed a switch fluorescence ratio of 1.02 ± 0.02.

With TTTTGGTCAT the switch fluorescence ratio was 0.962 ± 0.053.

TTTTGGTCTC gave a switch fluorescence ratio of 0.985 ± 0.036.

TTTTGGTGCG was tested, and the switch fluorescence ratio was 0.986 ± 0.041.

TTTTGGTTTA gave a switch fluorescence ratio of 1 ± 0.011.

TTTTGTACAA gave a switch fluorescence ratio of 1.04 ± 0.059.

With TTTTGTACGG the switch fluorescence ratio was 1.01 ± 0.018.

TTTTGTAGGT gave a switch fluorescence ratio of 0.973 ± 0.056.

In the case of TTTTGTGAAT, the switch fluorescence ratio is reported as 0.9561 ± 0.0045.

Sequence TTTTGTGGGC has a switch fluorescence ratio of 1.01 ± 0.055.

TTTTGTTACT was tested, and the switch fluorescence ratio was 1.01 ± 0.026.

TTTTGTTAGC gave a switch fluorescence ratio of 1.01 ± 0.03.

TTTTGTTATA showed a switch fluorescence ratio of 0.9783 ± 0.0036.

In the case of TTTTGTTGGT, the switch fluorescence ratio is reported as 1 ± 0.028.

TTTTGTTGTC was tested, and the switch fluorescence ratio was 0.984 ± 0.037.

TTTTGTTTAG showed a switch fluorescence ratio of 0.992 ± 0.021.

Sequence TTTTGTTTGG has a switch fluorescence ratio of 1.02 ± 0.041.

For TTTTTAAAAT, the switch fluorescence ratio was 1.08 ± 0.22.

Sequence TTTTTAAACA has a switch fluorescence ratio of 1.01 ± 0.068.

With TTTTTAAACG the switch fluorescence ratio was 0.995 ± 0.014.

Sequence TTTTTAAATA has a switch fluorescence ratio of 0.986 ± 0.023.

With TTTTTAAATC the switch fluorescence ratio was 1 ± 0.044.

Work on TTTTTAACAG yielded a switch fluorescence ratio of 0.997 ± 0.021.

TTTTTAAGCT gave a switch fluorescence ratio of 1.02 ± 0.019.

TTTTTAATCA was tested, and the switch fluorescence ratio was 0.987 ± 0.014.

TTTTTAATGG showed a switch fluorescence ratio of 1.01 ± 0.034.

TTTTTAATTT was tested, and the switch fluorescence ratio was 0.993 ± 0.023.

Work on TTTTTACAGG yielded a switch fluorescence ratio of 1.13 ± 0.16.

TTTTTACGAG gave a switch fluorescence ratio of 0.988 ± 0.045.

In the case of TTTTTACGTG, the switch fluorescence ratio is reported as 0.969 ± 0.035.

In the case of TTTTTACTCG, the switch fluorescence ratio is reported as 0.9965 ± 0.005.

TTTTTAGATT showed a switch fluorescence ratio of 1.02 ± 0.031.

TTTTTAGCAT showed a switch fluorescence ratio of 1.04 ± 0.084.

TTTTTAGCCC showed a switch fluorescence ratio of 1.02 ± 0.053.

TTTTTAGGCA gave a switch fluorescence ratio of 1 ± 0.042.

TTTTTAGGCG was tested, and the switch fluorescence ratio was 0.978 ± 0.028.

For TTTTTAGTTA, the switch fluorescence ratio was 0.981 ± 0.01.
